Target: T1, antisense peptide IPPKYW
T1 chain: IPPKYW
Experiment: tryptophan fluorescence titration

B1: Met-enkephalin (peptide)
chain: YGGFM
- Kd: 19 µM
